According to patent US5981488:

Biological target: rat GLP-1 receptor (rat) (UniProt P32301)

In the case of Thr-8 GLP-1(7-37)OH (peptide), the Percent receptor affinities (cAMP production by the membrane preparation, fluorescent tracer-immuno assay) is reported as 2.8%.
In the case of Met-8 GLP-1(7-36)NH2 (peptide), the Percent receptor affinities (cAMP production by the membrane preparation, fluorescent tracer-immuno assay) is reported as 16.6%.
